In the test the target is ICAM-1 (human) (UniProt P05362). Briefly: cell-based or functional assay.
Chain of ICAM-1 (human) (P05362 28-532): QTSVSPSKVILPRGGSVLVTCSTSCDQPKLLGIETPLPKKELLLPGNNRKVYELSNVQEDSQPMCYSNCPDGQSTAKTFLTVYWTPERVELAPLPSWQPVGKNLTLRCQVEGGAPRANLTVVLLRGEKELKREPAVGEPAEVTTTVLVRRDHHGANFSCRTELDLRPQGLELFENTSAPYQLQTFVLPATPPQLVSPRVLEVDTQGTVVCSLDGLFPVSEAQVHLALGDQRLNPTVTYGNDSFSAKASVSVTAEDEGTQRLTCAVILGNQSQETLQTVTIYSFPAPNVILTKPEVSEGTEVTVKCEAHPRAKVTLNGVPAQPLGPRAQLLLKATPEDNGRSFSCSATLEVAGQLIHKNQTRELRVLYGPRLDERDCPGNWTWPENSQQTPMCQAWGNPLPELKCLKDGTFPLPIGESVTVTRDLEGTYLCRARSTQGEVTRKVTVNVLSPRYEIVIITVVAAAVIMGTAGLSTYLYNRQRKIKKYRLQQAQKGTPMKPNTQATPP

On to “CD11a (LFA-1) (from UniProt P20701 26-1170) (receptor)”, for which the inhibition of tumor lysis by peptide specific CTLs with anti-CD11a (LFA-1) MAb, tumor cells after IFN-gamma exposure was in the range of 60 to 86%.
